Target: the molecule itself
Experiment: DEER

B1: CueR_19F58_L60H_G64H mutant (natural protein, E. coli)
chain: MNISDVAKITGLTSKAIRFYEEKGLVTPPMRSENGYRTYTQQHLNELTLLRQARQVGFNHEESHELVNLFNDPQRHSADVKRRTLEKVAEIERHIEELQSMRDQLLALANACPGDDSADCPIIENLSGCCHHRAG
modifications: 19F-phenylalanine at F58; Cu(II)-NTA spin label bound at the dHis site (L60H, G64H)
Q: Does B1 bind?
A: binds

Source: publication doi:10.1101/2022.08.03.502720 (bioRxiv, 2022)
